Measurements published in patent publication US9371393B2, “Class I anti-CEA antibodies and uses thereof” (Immunomedics, Inc., priority 2009, dated 2016).
Entries after “also recorded” stand apart in the source; their conditions may differ.

T1: NCA-90 (HeLa-KNC6/S44) (Homo sapiens, UniProt P40199)
T1 construct: expressed in transfected cells; host or cells: HeLa (HeLa-KNC6/S44)
T1 sequence (P40199 35-320): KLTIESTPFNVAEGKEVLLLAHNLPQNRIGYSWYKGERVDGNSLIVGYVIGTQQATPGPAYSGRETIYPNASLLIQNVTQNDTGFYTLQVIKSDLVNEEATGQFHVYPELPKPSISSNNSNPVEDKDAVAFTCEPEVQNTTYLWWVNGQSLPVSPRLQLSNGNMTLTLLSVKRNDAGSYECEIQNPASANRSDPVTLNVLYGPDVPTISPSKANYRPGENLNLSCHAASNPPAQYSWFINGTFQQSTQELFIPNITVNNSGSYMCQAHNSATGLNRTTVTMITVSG

T2: CEA (HeLa-CEA2) (Homo sapiens, UniProt P06731)
T2 construct: expressed in transfected cells; host or cells: HeLa (HeLa-CEA2)
T2 sequence (P06731 35-676): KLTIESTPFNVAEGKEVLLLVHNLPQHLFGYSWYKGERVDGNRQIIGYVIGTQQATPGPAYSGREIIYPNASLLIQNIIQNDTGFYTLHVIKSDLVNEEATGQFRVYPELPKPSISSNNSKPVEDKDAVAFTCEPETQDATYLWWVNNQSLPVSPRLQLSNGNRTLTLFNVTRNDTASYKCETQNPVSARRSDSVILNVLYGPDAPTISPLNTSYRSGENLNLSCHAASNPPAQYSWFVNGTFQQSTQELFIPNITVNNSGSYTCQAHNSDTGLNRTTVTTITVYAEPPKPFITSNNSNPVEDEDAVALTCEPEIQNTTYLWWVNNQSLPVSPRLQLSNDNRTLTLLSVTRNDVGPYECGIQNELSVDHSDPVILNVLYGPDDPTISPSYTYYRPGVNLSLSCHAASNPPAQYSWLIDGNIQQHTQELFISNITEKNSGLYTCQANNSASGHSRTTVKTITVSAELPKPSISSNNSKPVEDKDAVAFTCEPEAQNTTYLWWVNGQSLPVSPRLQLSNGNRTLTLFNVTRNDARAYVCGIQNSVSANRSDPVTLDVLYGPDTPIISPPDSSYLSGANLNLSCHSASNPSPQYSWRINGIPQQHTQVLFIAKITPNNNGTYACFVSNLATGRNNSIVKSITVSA

B1: MN-15: murine Class I anti-CEA MAb, IgG1 kappa, binds A1B1 domain of CEACAM5 and CEACAM6 (antibody, V domains shown)
VL: DIQLTQSPAIMSASPGEKVTMTCSASSRVSYIHWYQQKSGTSPKRWIYGTSTLASGVPARFSGSGSGTSYSLTISSMEAEDAATYYCQQWSYNPPTFGAGTKLELKR
VH: EVRLVESGGGLVQGPGSLRLSCAASGFALTDYYMSWVRQSPGKTLEWLGFIANKANGHTTDYSPSVKGRFTISRDNSQTILYLQMNTLRTEDSATYYCARDMGIRWNFDVWGQGTTVTVSS
B2: MN-15 Fab′: monovalent Fab′ fragment of murine MN-15 (antibody, V domains shown)
VL: B1 VL
VH: B1 VH

Legend:
granulocytes = assay: Granulocyte reactivity, whole-blood indirect fluorescent flow cytometric analysis; type: binding
Experimental: Hybridoma supernatants were screened for CEA reactive antibody by the ROCHE® ^125I-CEA radioimmunoassay (RIA) in 0.01 and 0.10 M NH4 acetate buffer. Positive clones were recloned. The granulocyte reactivity of CEA-reactive MAb was determined by whole-blood indirect fluorescent flow cytometric analysis (Sharkey et al. Cancer Res., 1990, 50:2823-31). Two MAb with properties similar to those of NP-2 and NP-3, designated MN-2 and MN-6, were selected for additional development.
Immunoreactivity with blood lymphocytes was determined by live-cell indirect immunofluorescence, with the use of the whole blood staining method developed for use with the ORTHO SPECTRUM® I11 flow cytometer (Ortho Diagnostic Systems, Inc., Raritan, N.J.). Tissue reactivity of the MAb was determined by immunohistologic examination performed on frozen sections and 5-μm sections cut from tissue embedded in Paraplast-II. Indirect immunofluorescence on frozen sections was performed as previously described, with MAb concentrations of 20 μg/ml (Pawlak-Byczkowska et al., Cancer Res 1989, 49:4568-77).

NCA-90 (HeLa-KNC6/S44) = target: T1, NCA-90 (HeLa-KNC6/S44); assay: Indirect flow cytometry, HeLa-KNC6/S44; type: binding; conditions: antibodies at 1/50 dilution of 1 mg/ml stocks
Experimental: (§1) The reactivity of antibodies was tested by flow cytometry with a Becton-Dickinson FACSCAN®. The biotinylated second antibody was directed against mouse IgG and was detected by a streptavidin/phycoerythrin conjugate. Tests were carried out with antibodies at 1/50 dilution of 1 mg/ml stocks.
(§2) The antibodies MN-3 and MN-15 were tested for recognition of HeLa cells transfected with cDNA coding for CEA (HeLa-CEA2), NCA-90 (HeLa-KNC6/S44) and NCA-95 (HeLa-CGM6/1). As a negative control, HeLa cells transfected with the plasmid pSV2-Neo (control HeLa cells, HeLa-NeoA) were used. In addition to the antibodies MN-3 and MN-15, three control antibodies were included: […]

[1] = system: MCF-7 adhesion to fibronectin; assay: Adhesion to extracellular matrix proteins assay, MCF-7; type: cell-based, human
Experimental: (§3) Adhesion to extracellular matrix proteins assay—The assay was done using the CYTOMATRIX™ screening kit from CHEMICON® (Kit #ECM205, Temecula, Calif.). The kit contains 96-well plates with strips coated with fibronectin, vitronectin, laminin, collagen-I, or collagen-IV. Subconfluent cell cultures were used for these studies. Cells (1×10^6 cells/mol) were seeded onto coated substrate and incubated at 37° C. for 1 hour in a CO2 incubator in PBS containing Ca^2+/Mg^2+ (200 μL per well). Adherent cells were fixed and stained. The plate was washed to remove unadhered cells and stained with 100 μL per well of MTS (Cell Titer Aq 96, PROMEGA®, Madison, Wis.) for 5 minutes at room temperature. Excess stain was removed with three PBS washes. Solubilization buffer [100 μL of a 50:50 mixture of 0.1 mol/L NaH2PO4 (pH 4.5) and 50% ethanol] was added to each well. Relative attachment was determined using absorbance readings (A540 nm-A570 nm).

CEA (HeLa-CEA2) = target: T2, CEA (HeLa-CEA2); assay: Indirect flow cytometry, HeLa-CEA2; type: binding; conditions: antibodies at 1/50 dilution of 1 mg/ml stocks
Experimental: as §1, §2

[2] = system: BXPC3 binding to fibronectin; assay: Adhesion to extracellular matrix proteins assay, BXPC3; type: cell-based, human
Experimental: as §3

BXPC3 cells = assay: Collagen-based invasion assay, BXPC3; type: cell-based, human; conditions: 10% FBS chemoattractant, 72-hour incubation
Experimental: (§4) Collagen-based invasion assay—The assay was done using CHEMICON® Kit (#ECM551, MILLIPORE®, Billerica, Mass.). Tumor cells at 80% confluence and were serum-starved for 18 to 24 hours before the assay was used. Cells were harvested with 5 mol of 2 mmol/L EDTA/PBS per 100-mm dish and incubated at 37° C. for 5 to 15 minutes. Cells were collected into 10 to 20 mol of quenching medium (serum-free DMEM containing 5% BSA) to inactivate trypsin/EDTA from the harvesting buffer. Cells were pelleted, resuspended in quenching medium (1×10^6 cells/mol), and appropriate antibody Fabs were added to individual cell aliquots. Cell invasion potential was determined as follows. Baseline invasion and invasion in the presence of a chemoattractant (10% FBS) were measured after a 72-hour incubation period at 37° C. in a 5% CO2 incubator. The bottom side of the collagen-coated polycarbonate membrane insert of the invasion chamber was placed in 400 μL of cell stain for 20 minutes at room temperature and washed. The dye was extracted and transferred into a 96-well microtiter plate for colorimetric measurements (A560 nm).

MCF-7 cells = assay: Collagen-based invasion assay, MCF-7; type: cell-based, human; conditions: 10% FBS chemoattractant, 72-hour incubation
Experimental: as §4

Molecule	granulocyte reactivity (granulocytes)	binding to NCA-90 (NCA-90 (HeLa-KNC6/S44))	decrease of adhesion to fibronectin [1]	binding to CEA (CEA (HeLa-CEA2))	effect on binding to fibronectin [2]	reduction in cell invasion (BXPC3 cells)	reduction in cell invasion (MCF-7 cells)
B1	granulocyte-reactive; also recorded: high granulocyte reactivity; also recorded: reacted strongly with granulocytes	binds to all three antigens	29%	binds to all three antigens	not affecting the binding		
B2						44%	77%
